# Measurements taken from PMC4115230, “Lipid–Protein Nanodiscs Offer New Perspectives for Structural and Functional Studies of Water-Soluble Membrane-Active Peptides” (Acta Naturae, 2014).
# Legend:
# [1] = target: T1, Membrane scaffold protein (MSP): recombinant 44-243 fragment of human apolipoprotein A1 with an N-terminal … (human, Printed limits 44-243 are in mature numbering: mature apoA-I is precursor 25-267 (243 aa), so residue 243 is the C-terminus and the offset is +24. N-terminal His6 tag omitted. Each nanodisc contains t); test: NMR titration; VSTx1 sample (20 μM by the legend of Fig. 2, 10 mM Tris-Ac, pH 7.0, no added salt) titrated with a lipid-free MSP solution (0.7 mM); 1D 1H-NMR signal intensity taken as free peptide; 40-45 °C; fits to partition equilibrium (eq. 1) and Langmuir isotherm (eq. 2); MSP concentration and n counted per two MSP molecules (MSP×2); settings: both partners purified
# [2] = target: T1, Membrane scaffold protein (MSP): …; test: as above; settings: both partners purified; remark: listed apart in the source
# T1 sequence (chain, as listed by the source): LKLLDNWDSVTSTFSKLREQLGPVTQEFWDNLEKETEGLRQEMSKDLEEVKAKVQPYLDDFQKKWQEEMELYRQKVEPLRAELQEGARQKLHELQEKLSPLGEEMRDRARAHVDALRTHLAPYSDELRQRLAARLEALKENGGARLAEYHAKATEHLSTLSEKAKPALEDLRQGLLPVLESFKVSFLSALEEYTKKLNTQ
binder,measurement,setting,value
"GSECGKFMWKCKNSNDCCKDLVCSSRWKWCVLASPF (additional N-terminal Gly-Ser residues left by the hydrolysis with thrombin; VSTx1 toxin from Grammostola spatulata spider venom, 34 AA, 4010 Da; three disulfide bonds (cysteine knot); The gene was built from synthetic oligonucleotides; also called VSTx1 toxin; recombinant VSTx1 analogue; not shown: thioredoxin (TRX), N-terminal, cleaved)",stoichiometry N,[1],1.6
same,Ka,[2],50000 ± 0.02 M⁻¹
same,stoichiometry N,[2],3.2 ± 0.9
